Source: patent US10427126B2, “System and method for longitudinal analysis of peptide synthesis” (Roche Sequencing Solutions, Inc., priority 2015, dated 2019)

Columns and labels:
streptavidin [1] = molecular target: T1, streptavidin (Streptomyces avidinii, UniProt P22629); details: peptide including the binder sequence; cited from earlier work
streptavidin [2] = molecular target: T1, streptavidin; assay: Cy5-labeled streptavidin binding to control peptide features on a peptide array (fluorescence signal output, FIG. 12)
Description: Whereas the hypothetical data presented in FIGS. 8-11 are for two example peptide arrays, actual signal output data following interrogation of a population of control peptide features can be presented in alternative or additional formats. With reference to FIG. 12, data was collected for a peptide array synthesis operation including twelve total synthesis periods. Control peptide features having the streptavidin binder sequence WTHPQFE (SEQ ID NO:1) were synthesized over three consecutive and uninterrupted synthesis periods (e.g., see FIG. 3) with control peptide features synthesized beginning with each of the first ten synthesis periods. […] The signal output is measured for each of the control peptide features using one or more interrogation and detection techniques as described herein. […]
Control peptide features are analyzed following the completion of a synthesis operation by array deprotection, streptavidin binding, and array scanning. […] Streptavidin fluorescence signal is detected by scanning the array at 2 μm resolution and 15% gain with a 635 nm excitation wavelength using an MS200 microarray scanner.
Box and whisker plots for analysis of control peptide feature data are prepared in a two-part process. First, data is aggregated for a plurality of synthesis operations that were individually determined to pass a quality control assessment. […]

T1 sequence (P22629 25-183, species assumed): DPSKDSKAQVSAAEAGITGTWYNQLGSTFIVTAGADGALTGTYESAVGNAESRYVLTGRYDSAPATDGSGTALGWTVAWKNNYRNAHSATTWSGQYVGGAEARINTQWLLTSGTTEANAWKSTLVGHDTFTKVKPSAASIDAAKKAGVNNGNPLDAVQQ

Row | Substance | binding by streptavidin (streptavidin [1]) | signal output as percentage of the aggregate data (2^14.3 units) (streptavidin [2]; fourth synthesis operation, synthesis period four) | signal output as percentage of the aggregate data (2^14.3 units) (streptavidin [2]; third synthesis operation)
1 | FDEWL | can be bound by streptavidin | – | –
2 | WTHPQFE | – | about 5% | about 54%
